In PMC12506534 (The Journal of Biological Chemistry, 2025):
Values joined by “and” are separate entries in the source; they are usually repeats but may differ in a detail not shown here. Identical values can stand only once.

Target: the molecule itself
Test: SEC; oligomeric forms of the separately purified proteins; Superdex 200 Increase 10/300 GL, 20 mM HEPES pH 7.5, 150 mM NaCl, 1 mM DTT (Fig. S1, A and B)

B1: Get3(D57N), Saccharomyces cerevisiae (enzyme, S. cerevisiae, UniProt Q12154 1-354, looked up)
chain: MDLTVEPNLHSLITSTTHKWIFVGGKGGVGKTTSSCSIAIQMALSQPNKQFLLISTNPAHNLSDAFGEKFGKDARKVTGMNNLSCMEIDPSAALKDMNDMAVSRANNNGSDGQGDDLGSLLQGGALADLTGSIPGIDEALSFMEVMKHIKRQEQGEGETFDTVIFDTAPTGHTLRFLQLPNTLSKLLEKFGEITNKLGPMLNSFMGAGNVDISGKLNELKANVETIRQQFTDPDLTTFVCVCISEFLSLYETERLIQELISYDMDVNSIIVNQLLFAENDQEHNCKRCQARWKMQKKYLDQIDELYEDFHVVKMPLCAGEIRGLNNLTKFSQFLNKEYNPITDGKVIYELEDKE
notes: Get3, S. cerevisiae, UniProt Q12154, full length, with D57N; Purified in dimeric and tetrameric forms; the dimer was used to form the complex with Get4/5; ATP and MgCl2 were present in the complex, cryo-EM and MST samples; also called D57N variant; ATPase-deficient D57N variant; source: E. coli Rosetta (DE3), purified (Ni-NTA, SEC)
B1 was tested, and the “stoichiometry N” value was 2 and 4.
